Test: yeast display, Sf9 membrane polyspecificity reagent, FACS + sequencing; frameworks hold sequencing errors
How it was run: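 Using colony PCR, genes from sorted yeast display clones were amplified, then sequenced on MiSeq at 2 × 250 and filtered by CDR length. The clones had been stained with 10% biotinylated, detergent-solubilized Sf9 membrane reagent for 1 hour at 4 °C and sorted by FACS into low and high (top ~1%) gates on anti-HA and streptavidin fluorescence. Polyreactivity labels come from the gate of origin.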

Row | Sequence | polyreactivity (PSR sort gate)
1 | QVQLVESGGGLVQAGGSLRLSCAASGYIFVKNAMGWYRQEPGKERELVAAISSSGGSTYYADSVKGRFTISRDNAKNTVYLQMNSLKPEDTAVYYCNVYGSYTSVSRQSDWWPDYGYWGQGTQVTVSS | low polyreactivity
2 | QVQLVESGGGLVQAGGSLRLSCAASGYIFVRNAMGWYRQAPGKERELVAAISGSGGSTYYADSVKGRFTISRDNAKNTVYLQMNSLKPEDTAVYYFAADYATVTWRGIAYDYWGQGTQVSVSS | low polyreactivity
3 | QVQLVESGGGLVQAGGSLRLSCAASGYIFVRNAMGWYRQAPGKERELVAAISGSGGSTYYADSVKGRFTISRDNAKNTVYLQMNSLKPVDTAVYYCAADYATVTWRGIAYDYWGQGTQVTVSS | low polyreactivity
4 | QVQLVESGGGLVQAGGSLRLSCAASGYIFVRYAMGWYRQAPGKEREFVAAISSSGGSTRYADSVKGRFTISRDNAKNTVYLQMNSLKPEDTAVYYCAATRVARHGSPMYYWGQGTEVTVSS | high polyreactivity
5 | QVQLVESGGGLVQAGGSLRLSCAASGYIFVWYDMGWYRHAPGKERELVAAITWSGGSTYADSVKGRFTISRDNAKNTVYLQMNSLIPEDTAVDYCNADNNLDVYVDYGFNYWGQGTQVTVSS | low polyreactivity
6 | QVQLVESGGGLVQAGGSLRLSCAASGYIFYFNAMGWYRQAPGKEREVVAAITFSGGATYYADSVKGRFTISRDTAKNTVYLQMNSLKPEDTAVYYCAAASRRSGAYTFYRTTSGAYGYWGQGTQVTVSS | high polyreactivity
7 | QVQLVESGGGLVQAGGSLRLSCAASGYIFYGYVMGWYRQAPGKERELVAGITYSGGGGTHYADSVKGRFTISRDNAKNTVYLQMNSLKPEDTAVYYCATADPQLNRTYYSYGMDYWGQGTQVTVSS | low polyreactivity
8 | QVQLVESGGGLVQAGGSLRLSCAASGYIFYTYAMGWYRQAPGKERELVAGITGSGGSTYYADSVKGRFTISRDNAKNTVYLQMNSLKPEDTAVYYCANDIYQIGYRRYDSWGQGTQVTVSS | low polyreactivity
9 | QVQLVESGGGLVQAGGSLRLSCAASGYIIFGNAMGWYRQAPGKERELVAAIRWRGTSTYYADSVKGRFTISRDNAKNTVYLQMNSLKPEDTAVYYCAADVVRSNFYGTFLYDYDYWGQGTQVTVSS | low polyreactivity
10 | QVQLVESGGGLVQAGGSLRLSCAASGYIILLYAMGWYRQAPGKERELVAAISTRDGSTYYADSVKGRFTISRDNGKITVYLQMNSLNPEDTAVYYCATLYYYNYCGQGTQVTVSS | high polyreactivity
11 | QVQLVESGGGLVQAGGSLRLSCAASGYIIRGYVMGWYRQAPGKERELVAAITSRGDSTYYADSVKGRFTISRDNAKNTVYLQMNSLIPEDTAVYYCYFYFRRQYEHEYWGQGTQVTVSS | high polyreactivity
12 | QVQLVESGGGLVQAGGSLRLSCAASGYILGVYAMGWYRQAPGKERDLVASISRSGGSTYYADSVKGRFTISRDNAKNTVYLQMNSLKTEDSAVYYCSNRSRTAHFRLRYDYWGQGTQVTVSS | low polyreactivity
13 | QVQLVESGGGLVQAGGSLRLSCAASGYILHRNAMGWYRQAPGKERELVAVISWGGTSTYYADSVKGRFTISRDNAKNTVYLLMNSLKPEDTAVYYCNAKGWYYKYDYWGQGTQVNVSS | high polyreactivity
14 | QVQLVESGGGLVQAGGSLRLSCAASGYILRYYGLGWYRQAPGKERELVAAITRGVSTNYADSVKGRFSISRDNAKNTVYLKMNSLKPEDTAVYYCAAKYYPYSSLSKPWTMDYWGQGTQVTVSS | low polyreactivity
15 | QVQLVESGGGLVQAGGSLRLSCAASGYILTHYAMGWYRQAPGKERELVAAITRVGNSNYADSVKGRFTISRDNAKNTVYLQMNSLKPEDTAVYYCAADGVASLFGDPPTEFDYWGQGTQVTVSS | low polyreactivity
16 | QVQLVESGGGLVQAGGSLRLSCAASGYISRYNTMGWYRHAPGKERELVAAITWSGGSTYADSVKGRFTISRDNAKNTVYLQMNSLKQEDTAVYYCAAGAYIWDNYSYRWYDYWGQGTQVTVSS | high polyreactivity
17 | QVQLVESGGGLVQAGGSLRLSCAASGYIVDRNAMGWYRQAPGKERELVAAITKRGGITYYADSVKGRFTISRDNAKNTVYLQMNSLKPEDTAVYYCNALARSSRYDYWGQGTQVTVSS | low polyreactivity
18 | QVQLVESGGGLVQAGGSLRLSCAASGYIYQRNAMGWYRQAPGKERELVARINYRGGSFYADSVKGRCTISRDNAKNTGYLQMNSLKPEDTAVYYCAARTSGDMYSWGQGTQVTVSS | high polyreactivity
19 | QVQLVESGGGLVQAGGSLRLSCAASGYNFDDNAMGWYRQAPGKERELVATNYADSVKGRFTISRDNAKNTVYLQMKSLKPEDTAVYYCAKDVWQTYTDLDHWGQGTQVTVSS | low polyreactivity
20 | QVQLVESGGGLVQAGGSLRLSCAASGYNFNYAMGWYRQAPGKERELVAAISRRGGSTYYADSVKGRFTISRDNAKNTVYLQMNSLTPEDTAVYYCAARLPGYFGIGDYWGQGTQVTVSS | high polyreactivity
21 | QVQLVESGGGLVQAGGSLRLSCAASGYPFGYYGKGWYRQAPGKERELVAAISRSGGGSTYYADSVKGRFTISRENAKYTVYLQINSLKPEDTAVYYCNVSPGVWRSIPLYYNLRYGYWGQGTQVTVSS | low polyreactivity
22 | QVQLVESGGGLVQAGGSLRLSCAASGYTDYAMGWYRQAPGKERELVATITSGDNTNYADSVKGRFTISRDNAKNTVYLQMNSPQPEDTAVYYCAADRIGRYRPYIGYWGQGTQVTVSS | low polyreactivity

Row | Sequence | polyreactivity (PSR sort gate)
23 | QVQLVESGGGLVQAGGSLRLSCAASGYTFAIYAMGWYRQAPGKERELVAAITWNGGSTYYADSVKGRFTISRDNAKNTVFLQMNSLKPEDTAVYYCAADYWSGGYDYWGQGTQVTVSS | low polyreactivity
24 | QVQLVESGGGLVQAGGSLRLSCAASGYTFAPYVMGWYRPAPGKERELVARISNNGGSTYYADSVKGRFTISRDNAKNTVYLQMNSLKPEDTAVYYCAADVGLIYFRYYYWGQGTQVTVSS | low polyreactivity
25 | QVQLVESGGGLVQAGGSLRLSCAASGYTFASNAMGWYRQAPGKERELVAAITRGGSTNYADSVKGRFTISRDNAKNTVYLQMNSLKPEDTAVYYCAAPRYRHTRKGGYWGQGTQVTVSS | low polyreactivity
26 | QVQLVESGGGLVQAGGSLRLSCAASGYTFASYTLGWYRQAPGKERELVATISRGGGRTYYADSVKGRFTISRDNAKNTVYLQMNSLKPEDTAVYYCAARWWYYNGGRDYWGQGTQVTVSS | high polyreactivity
27 | QVQLVESGGGLVQAGGSLRLSCAASGYTFAYNAMGWYRQAPGKERELVAVITWSGDSTYYADSVKGRFTISRDNAKNTVYLQMNSLKPEDTAVYYCAAQVDRWKGREHDYWGQGTQVTVSS | low polyreactivity
28 | QVQLVESGGGLVQAGGSLRLSCAASGYTFAYNGMGWYRQAPGKERELVAVIDWSTGDTYYADSVKGRFTISRDNAKNTVYLQMNSLKPEDTAVYYCAADFFEGLYVFWGQGTQVTVSW | low polyreactivity
29 | QVQLVESGGGLVQAGGSLRLSCAASGYTFDLYAMGWYRQAPGKERELVADISSGGSTNYADSVKGRFTISRDNAKNTVYLQMNSLKPEDTAVYYCAVDADRTLFGQYYVSEYGGGYWGQGTQVTVSS | low polyreactivity
30 | QVQLVESGGGLVQAGGSLRLSCAASGYTFGAYAMGWNRQAPGKERELVAAITVRAGRTYYADSVKGRFTISRDNAKNSVYLQMNSLKPEDTSVYYCARRNPLGGNEHDYWGHGTQVTVSS | low polyreactivity
31 | QVQLVESGGGLVQAGGSLRLSCAASGYTFGINAMGWYRQAPGKERELVAAITTGGSTNYADSVKGRFTISRDNAKNSVYLQMNSLKPEDTAVYYCNASWDVWNANYWYPGAYYYWGQGTQVTVSS | low polyreactivity
32 | QVQLVESGGGLVQAGGSLRLSCAASGYTFGKYAMGWYRQAPGKERELVAGISSRGGSTYYADSVKGRFTISRDNAKNTVYLQMNSLKPEDTAVYYCAAVAYTGGPRKLGFNYWGQGTQVSVSS | high polyreactivity
33 | QVQLVESGGGLVQAGGSLRLSCAASGYTFGKYVMGWYRQAPGKERELVAAISKSGSGTYYADSVKGRFTISRDNAKNTVYFQMNSLKPEDTAVYYFAARGYGFPELDYWGQGTQVTVSS | high polyreactivity
34 | QVQLVESGGGLVQAGGSLRLSCAASGYTFGSNAMGWYRQAPGKERELVAAISNGGSTNYADSVKGRFTISRDNAKNTVYLQMTSLKPEDTAVYYCAAASRWHIGYWRYDYWGQGTQVTVSS | low polyreactivity
35 | QVQLVESGGGLVQAGGSLRLSCAASGYTFGSYAMGWYRQAPGKERELVAAITRRGGSTYYADSVKGRFTISRDNAKNTVYLQMTSLKPEDTEVYYCAKRSRDYVSSFLTSHANDYWGQGTQVTVSS | high polyreactivity
36 | QVQLVESGGGLVQAGGSLRLSCAASGYTFGYYAMGWYRQAPGKERELVAAISSGGSTYYADSVKGRFTISRDNAKNTVYLQMNSLKPEDTAVYYCAVVRYLGDRGMNYWGQGTQVTVSS | low polyreactivity
37 | QVQLVESGGGLVQAGGSLRLSCAASGYTFIDNAMGWYRQAPGKERELVAAISWSVDRTYYADSVKGRFTISRDNAKNTVYLQMNSLKPEDTAVYYCAAVHWWSSSLRMYYWGQGTQVTVSS | low polyreactivity
38 | QVQLVESGGGLVQAGGSLRLSCAASGYTFIVNAMGWYRQAPGKERELVAAITSGGGTYYADSVKGRFTISRDNAKNTVYLQMNCLKPEDTAVYYCAARSGYRYVESDYWGQGTQVTVSS | high polyreactivity
39 | QVQLVESGGGLVQAGGSLRLSCAASGYTFKAYAMGWNIQAPGKERELVAAISWSGARTYYAYSVKGRFTISRDNAKNTVYLEMNRLKPEYTAVYYCAASNAVYAGRSYRDEYWGQGTQVTVSS | high polyreactivity
40 | QVQLVESGGGLVQAGGSLRLSCAASGYTFKTNDMGWSRQAPGKEREFVAAIDSGGNTYYADSVKGRFTISRDNAKNTVYLQMNSLKPEDTAVYYCAAYRDYQYDYWGQGTQVTVSS | low polyreactivity
41 | QVQLVESGGGLVQAGGSLRLSCAASGYTFLIYAMGGYRQAPGKERELVASISRSGGSTYYADSVKGRFTISRDNAKKTVYLQMNSLKPEDTAVYYCAARNPYRYFYNYEYWGQGTQVTVSS | low polyreactivity
42 | QVQLVESGGGLVQAGGSLRLSCAASGYTFLKYAMGWYRQAPGKERELVAAISGRGGRTYYADSVKGRFTISRDNAKNTVYLQMNSLKPEDTAVYYCNAVRNSPDDYWGQGTQVTVSS | high polyreactivity
43 | QVQLVESGGGLVQAGGSLRLSCAASGYTFPLYAMGWYRQAAGKERELVADINIGGASTYYADSVKGRFTISRHNAKNTVYLQMNSLKPEESAVYYCAKEYYDGYFPTFDYDYWGQGTQVTVSS | low polyreactivity

From the nanobody polyreactivity screen of Harvey et al. (2022)
